The supplement of paper PMC12455559

Assay: purified protein yield per well (BCA); higher = higher soluble expression
How it was run: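 Values under 25 ug (0.1 mg/mL) are below the detection threshold. Purified protein yield per well was quantified with the Pierce Rapid Gold BCA kit after candidate enzymes, expressed in E. coli C41(DE3), were captured on Ni-charged magnetic beads and released by SUMO protease on an OT-2 robot. Cultures were 2 mL autoinduction with 100 µg/mL kanamycin, run 2 h at 37 °C and then 40 h at 18 °C.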

VENGPAPTLAAIQKDGPYAVTAQAIKGSGFGSGTIYVPNAAGQYALVAVCPGFVSPESSITAISKRLATHGFVVVTIATNTLLDFPSSRASQILAALKAAAGTTTGAVAGKIDVSRQVASGWSMGGGGTLEAAASTPGLVAAVAYAPWNTSSTKYKTITVPSLILGGTADVIAPVAQHSQPFYNAIPATTPKMLAVIQGASHFFPNSAGEPQSYTNISWVKRFADGDTRYGTFLNTKDAAFSTVQSTGPF [ESM089]
purified protein yield per well: < 25 µg

AQQTILQESFNSSLGSFTSAGSVSVGSSGALMRGSAYSTDGRITSAAVSTQGLTNIVLSFTSATSGLDLGEAAIVSYSTNGSSYTTVSSERYATGSFTFNLGTAAANQSQLFLRFAIDASSTYETYAVDNIILTGDGEGGGTTCTTCIGPDPTVAALEAARGPFNTSSFGLSSWSVSGFGGGDIFYPTNAPAGPLAAIAICPGFLGTSETVDWWGPRLASHGFVVIVMDPNSVFDQPAQRATQLMACLDELEDQNNDSGSPIYGMVDSNRVGLMGHSMGGGGTLIATEDNPSVIKAAIPMAPWNMLSSNFSDITTPTLVIACEADLIAPVAQHARPFYDSIPSTVPKAFLEINNGDHLAVMNGDVFEDMLGKYGVAWMKVFLDNDQRYMQFLCGPDHESDWDISDYRSSCPY [DP024]
purified protein yield per well: < 25 µg

GPGMEGNPYQRGPAPTTASIEAPTGAFAVSNASVPGGNGFGGGTLTYPTDTSQGTFGAVVVTPGFLSPEMKWYGPRLASQGFVVLTIATNTAVDQPGARAAQMLAALRYLVEQSPVKNRVDGSRLAVMGHSMGGGGSLEAAEAYPALKAAIPLEPWDLGKSFSAVRTPTLIVGGQSDWIAPVGQHAVPFYNSIPAGVNKAYIELAGGSHFVPMSPNVTIAKYSIAWLKRFVDNDTRYDQFLCPVPQAAALSVSKGTCPHT [TEP175]
purified protein yield per well: < 25 µg

ADNPYQRGPDPTVASVAATRGPFATAQLTVPAGNGFGGGYLYYPTDTSQGTWGAVAIVPGYSALFANEEAWMGPWLASFGFVVIGVETITRTDGADARATELLAALDYLTQRSAVRDRIDATRLAVMGHSAGGAGTILAAEQRPSLKAGVGLAPGTPGSLSLATDKVPMMVVGGQTDPTVTPAYLDNLYAGMPATTPSDFVQIAGADHLFFTRANNTEMKVLIPWLKIFLDNDTRYTQFLCPSLADPSGISLYRSKCPYLPPGTPSPSPSVSPSNPAAGCTASYRTVGSWPGGFQGEVTVTAGGAALNGWTVGWTLGSGQTITQVWNGTLTTSGSAVTVRNASYSGSVPAGGSITFGFLAAGTPSVPALTCAG [ESM028]
purified protein yield per well: < 25 µg

DENPLERGPDPTESFIEQRRGNYDVAQRSINRMGSDGFRNGTIYYPTDSSDGQFGVIAISPGYTAGESSIAWLGARMASFGFVVVTINTTTRYDQPRQRSTQLLAALDHAMEDSVVGPMIDPERQAVMGHSMGGGGALQAAESRPEIDAVIPLTPWNLKRNWRNIDAATLIIGAERDTIASVRTHSIPFYESLTGADQRGYLELRGASHFAPNFSNTTIAKYSVAWMKRHLDDDERYEKFLTPGPTVGYSSGVSDYRLQ [DP097]
purified protein yield per well: < 25 µg

ADNPYERGPDPTEASIEAPRGPYAVAEKSVSALEATGFGGGTIHYPTSTAEGTFGAVAIAPGYTALQSSVAWLGPRLASQGFVVITIDTHTTVDQPASRGDQLLAALDHLTRRDSVRSRVDSGRLGVMGHSMGGGGSLEAAKDRPSLQAAIPLTGWNLDKTWSEVRVPTMLIGADGDTIAPVATHSQPFYESLPSTLDRAYLELNDAGHFTPNAPDTTIAKYSVSWLKRFIDNDTRYEQFLCPLPRPSRTIDEYRGNCPHTS [TEP143]
purified protein yield per well: < 25 µg

ATVTPIRMETRIRTSSFTRFTSTPTACAFDSPIAKAFSSVRSRIDASRLAVAGHSMGGGGTLEAAKDRPGLRAAVPLAPWNTTKNWSGNRVPTLIIGGQSDTIAAVSSHAVPFYTSLPTTPDKAYLELAGASHFFPQSANADVAMMFVSWLKRFVDGDTRYEQFLCPGPSVSGSVSRYSSTCPLASGPTPTSTTTATTGTSTTRTTTTSSGGSGGGACSASYATSNAWQGGFVGTVTVRADLALSGWQVTLALPAGTTITGSWNGVRSGSTGTVQVRNETYNGILASGQTTSFGFQGSGSPSGLTVTSCTAN [ESM108]
purified protein yield per well: < 25 µg

DEIGQAPTAANITGDGSFSTSSSAIFGQSGFGGGTAYYPNTAGKYPVVAFAPGFLSDWNALNWLGPRVASWGFVVVGVNTNTPFDFPDARGDQLLAALNWAVNSAPAAVRDKADGSRRGVSGWSMGGGGTLEALAKDTTGTVKAGVPLAPWHTNKTWSKVTEPVFIIGGQNDSVAAPASHAIPFYNSLGGPKSYLERAGADHFFPTKSNGTVSRAVVSFFKRHVSADTRFTPFLCGFSGLDVSNFRSNSC [ESM030]
purified protein yield per well: < 25 µg

QIGPDPTSSSLNATSGPFAVSTSTVAIASGFGGGTIYYPTTTGQYGVIAVSPGFTATQSSIAWLGRRLATHGFVVITIDTLTTLDQPASRATQLVAALNYVVNSATSTVRSRVDSSKRAVAGHSMGGGGALIAAQNNPGLKASLPLTPWNLSTNFSQNQVPTLIFGSDGDTVAPVAVHSRPFYASLPSSTYKAYAELNLATHFTPNSTNTPIGRYGVAWMKRFIDSDTRYSAFLCGAEHQAYATALVFDRYNQNCPY [ESM113]
purified protein yield per well: < 25 µg

MGPWLASFGFVVLGIETNSRTDGADARATQLLAGLDYLTRTSPVRSRVDPNRLSVMGHSAGGAGTLLAALRRPSLRTAVGLAPGTPGNNLNMSTTQVPTLLLSGQNDGTVTPSYVQGIYNTLPAGVEHAWAELAGNDHLSFTRSNPTEMRLLIPWLKIFLDYDTRYTQFLCPLSNSTGVSRYSSTCPLVPPGGPTVPPTTTPPPTTPPPTTPPTTPPPTTPPPTTPPPGTACTATYRTIGSWSGGFQGEVTVTAGSAAVDGWTARWQLASGQGISQVWNGTLSTSGTTVTVRNADYNGTLAPGTSTTFGFLGTGTPNSPSPTCTSP [ESM008]
purified protein yield per well: < 25 µg

STPAHHAAARTAAHHHAPFAVRATVVPKTAVKAFGGGVIYTPQDTGKAVLGAVVITPGFTDTSADEKEMAELVASQGFVAFAIDTLDTGDLPDQRATEILAAADYLTGQSAVRSEVSAKDVGLIGYSFGGGGTMQAAQARPSIKAAIGLMPYDFPPADQPDAQYPAYPKLTTPTLVITGQKDDLAVPAEFGKPAYDSIPAGTPKQYLELKGLGHAAGEHVPVATIRTAVTAFLKRYLDGNSAYAKYICPAPKVGGPISASTSSCPKG [TEP196]
purified protein yield per well: < 25 µg

RDLPPSAPLAANPYERGPAPTVASIEATLGPFATAQTTVAAGSVSGFGGGTIYYPTSTAEGTFGAVAISPGFTARQTSVAWLGPRLASQGFVVITIDTRSVYDQPASRGTQLLAALDYLTNTSTVRTRIDRNRLAVMGHSMGGGGSLSAASTRPALQAAIPLTGWHTQKSWSSVRVPTLVIGAENDTVAPVSSHSEPFYTSLPATLDKAYLELNAASHSAPTSSNVTVAKYSISWLKRFVDDDTRYEQFLCPAPRGSAIEEYRDTCPHS [TEP042]
purified protein yield per well: < 25 µg

ADNPYERGPAPTNSSIEATRGPFAVSDTRVSSLVSGFGGGTIYYPTSTSSGTFGAVVISPGFTGTQSSIDWLGPRIASQGFVVFTIDTITIYDQPDSRASQLLAALDYLTQRSDVRSRIDASRLGVMGHSMGGGGTLRAAAQRPSLQAAIPLTGWHTTKNWSSVSVPTLVIGAESDSVAPVATHSEPFYTSLPSTLDKAYLELNNASHFAPNLPDTTIAKYSISWLKRFIDNDTRYEQFLCPGPGRSTQVEEYRNTCPNS [TEP025]
purified protein yield per well: < 25 µg

CGLCKAQTCDTLTLDSIYDPGAYSFATLLESDGIRNGPDYAGATIYYPTNGIPPYPAIAICPGHSTFEYTIQAWGPFYASHGIVTITIGTNSIYDYPDARKNAILDALETVRQENVRSGSPLFGYLDLSRLAVSGWSMGGGGAQLAAAADTTIKAVVGLCPWLESWRTAADLNHPVPTLILSGQIDAIAPPYYHADVHYGYIP [TEP133]
purified protein yield per well: < 25 µg

VPAPPAVERGPAPTPASVTAAVGPHAVITAAVRRADVAGFGGGTLLAPADAAGGPYGVVAVAPGFREGAATLAWLGPRLASRGFVVLLVDTLDPDEFPTARAAELLAAIDWVVADSPVRDRADPARAAVLGHSMGGGAALEAALARPGLRAAIPMAPWDPAADFAGVRVPTLVLAAEDDTIAPPAEHAERFYASLTAPARAYALLPGRDHDFSNAPDDVTAGLVLSWLARFVDGDTRYTRLLCRGTLSAAVASQQDTCPAP [TEP074]
purified protein yield per well: < 25 µg

ATVACSDCSNGFQRGTLPRVDQLESSRGPYSVKTSNVSVFARGFGGGTIHYSTDSGGQQGIIAVIPGYVSYESSIKWWGPRLASWGFTVITINTNTIYDQPNSRANQLSAAIDYVIDKGNDRSSPIYGLVDPERVGVIGWSMGGGGTLKLATDRDIDAIIPQAPWYSGLNSFSRITTPTMVIACQADAVAPVALHASIFYNQIPRSTPKAFFEIAAGSHFCGNSGYPNEDILGRNGVAWMKRFIDNDTRYNQFLCGQNFDRSLRVSDYKDTCNTY [DP094]
purified protein yield per well: < 25 µg

AVQNGPAPTSTSVNAAGTYATASSAVAASASLGFGGGTIYYPTAAGTYGVIALCPGFTATQTSVAWLAQRLATHGFVTLAMNTNNPLLDSPSSRGIQLRAAIAYLTGSSAPAAVKAHVDATRRAVYGHSMGGGGVLYALTSDKTLKAGFPMAPYNTATTSFPTITSATMILTGTGDTTAPPSTYGLPMYNSLPVTTQKAYALLTGAGHS [TEP161]
purified protein yield per well: < 25 µg

FSAPGPSAPCSNCTRGPAPTATALKASSGPFTTAKFSVSGFLKGFGDSTVYYPTNTTGKMGAIAVIPGYLSYENSIDWWGPRLASHGFVVMTMNTETIYDQPDSRASQLSEALDYLIAQSNSSSSPIYNKVDSTRLGAIGWSMGGGGSLKLSTQRSINAIIPQAPWYLGSSAFSGIKTPALILACSADTVAPVAQHASPFYNQIPNSTPKAFLEIYGGSHFCANSGYPNQSMLGMYGIAWMKRFIDFDSRYSQFLCGPNHESDLAISDYRQNCPY [ESM044]
purified protein yield per well: < 25 µg

ADNPYQRGPNPTLSSVRAGSGPYATTSTTVARSAVSGFGGGTVYYPTSTSDGTFGAVAMCPGYTATKESLAWFGPRVASHGFVVFIIDTVTTSDQPAQRGDELLAALDHLTRTSSVRSRIDASRLAVAGHSMGGGGTLEAAKDRPGLRAAVPLAPWNTTKNWSGNRVPTLIIGGQSDTIAAVSSHAVPFYTSLPTTPDKAYLE [DP074]
purified protein yield per well: < 25 µg

IENGPAPTFSSVQADGPFAVSTQTVRGSGFGGGTVYSPNTAGKYAVVAVCPGFTATQTSIALISRRLATHGFVVVTINTNTVYDYPASRANQLLAALRTVTALTTGPVAGKMDTSRQAVSGWSMGGGGAMLAAGMTPGLKAGVAFAPWSLTNNVGSSAVPMAYLAGTADTVAPASVHSSVFYNATPATTKKLIGVIQGADHYFPGTASQPASYTQVAWMKRFLDGDTRYSQFLNGDTRFATFRSTGPF [ESM109]
purified protein yield per well: < 25 µg

AANPYERGPAPTTAVLEAARGPFATTSAAIARTSSFGGGTVYYPTDTSQGTFGAVAISPGFSATQSSVAWYGPRLASHGFVVVTINTLSGWDDPDSRARQLLAALDYLTNTHAVRTRIDKTRLGVMGHSMGGGGALRASVSRPSLQAAIPLAPWHNTKNWSSDGVPTLIVGAENDTVAPVNQHAEPFYTSITGAPDKAYLELNNAGHSAPSSEGPNVTVGKFSVAWLKRFIDNDTRYEQFLCPAPRPDTRINEYRDTCPHS [TEP084]
purified protein yield per well: < 25 µg
